Results on 14 molecules are retold here after publication PMC4014563, “A High-Throughput Method to Examine Protein-Nucleotide Interactions Identifies Targets of the Bacterial Transcriptional Regulatory Protein Fur”.

The target in series [1] is T1, Fur (ferric uptake regulator) (Neisseria gonorrhoeae F62, UniProt Q51008 1-144).
T1 sequence: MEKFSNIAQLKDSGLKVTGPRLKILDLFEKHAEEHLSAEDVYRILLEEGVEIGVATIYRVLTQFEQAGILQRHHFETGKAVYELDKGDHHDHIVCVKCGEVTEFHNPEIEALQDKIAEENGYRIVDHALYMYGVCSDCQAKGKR
In words: IRIS; 400 nM Fur; 0.5 dimer/dsDNA; 20 mM Tris-Cl pH 7.9, 5 mM MgCl2, 40 mM KCl, 0.125 mM MnCl2, 2 mM DTT, 10% glycerol, 0.19 ug/uL poly dIdC (EMSA also 3.125 ug/uL BSA), RT; IRIS 2 hr, EMSA 30 min with 12.5 nM probe. The conditions noted are these: protein: recombinant; tags: N-terminal 6xHis (pET15b) cleaved with thrombin and removed; chain copies: 2; label: surface-immobilized; blunt. Background: Mobility shift assays separate free from complexed probe on a gel.

In series [2] the target is T1, Fur (ferric uptake regulator). In words: IRIS; no DSH increase up to 800 nM Fur; 20 mM Tris-Cl pH 7.9, 5 mM MgCl2, 40 mM KCl, 0.125 mM MnCl2, 2 mM DTT, 10% glycerol, 0.19 ug/uL poly dIdC (EMSA also 3.125 ug/uL BSA), RT; IRIS 2 hr, EMSA 30 min with 12.5 nM probe. The conditions noted are these: protein: recombinant; tags: N-terminal 6xHis (pET15b) cleaved with thrombin and removed; chain copies: 2; label: surface-immobilized; blunt.

Series [3] shares this target. In words: IRIS; 400 nM Fur (concentration implied); ~1 dimer/dsDNA; 20 mM Tris-Cl pH 7.9, 5 mM MgCl2, 40 mM KCl, 0.125 mM MnCl2, 2 mM DTT, 10% glycerol, 0.19 ug/uL poly dIdC (EMSA also 3.125 ug/uL BSA), RT; IRIS 2 hr, EMSA 30 min with 12.5 nM probe. The conditions noted are these: protein: recombinant; tags: N-terminal 6xHis (pET15b) cleaved with thrombin and removed; chain copies: 2; label: surface-immobilized; blunt.

Series [4] shares this target. In words: IRIS; 200 nM Fur; 1 dimer/dsDNA; 20 mM Tris-Cl pH 7.9, 5 mM MgCl2, 40 mM KCl, 0.125 mM MnCl2, 2 mM DTT, 10% glycerol, 0.19 ug/uL poly dIdC (EMSA also 3.125 ug/uL BSA), RT; IRIS 2 hr, EMSA 30 min with 12.5 nM probe. The conditions noted are these: protein: recombinant, tags: N-terminal 6xHis (pET15b) cleaved with thrombin and removed, chain copies: 2, blunt.
The target is the same in series [5]. In words: EMSA; Mn2+; apparent Kd; 20 mM Tris-Cl pH 7.9, 5 mM MgCl2, 40 mM KCl, 0.125 mM MnCl2, 2 mM DTT, 10% glycerol, 0.19 ug/uL poly dIdC (EMSA also 3.125 ug/uL BSA), RT; IRIS 2 hr, EMSA 30 min with 12.5 nM probe. The conditions noted are these: protein: recombinant; tags: N-terminal 6xHis (pET15b) cleaved with thrombin and removed; chain copies: 2; label: surface-immobilized (IRIS); 32P (EMSA); blunt.

B1: NGO1284 promoter probe (dsDNA)
DNA 1: ACACGGGAAATAATATCAATATATTGATTTACAAACATAAAAATCATGC
DNA 2: GCATGATTTTTATGTTTGTAAATCAATATATTGATATTATTTCCCGTGT
modifications: 5' amino-C6 on strand 1
As to B1, the binding signal in series [1] is 1.7 ± 0.03 nm DSH.

B2: NGO1948 promoter probe (dsDNA)
DNA 1: TCTTTCCGTCAAAATACTTTCTTTTTATATTCATTAACTTGTTAAATTA
DNA 2: TAATTTAACAAGTTAATGAATATAAAAAGAAAGTATTTTGACGGAAAGA
modifications: 5' amino-C6 on strand 1
Turning to B2, the binding signal in series [1] was determined as 1.7 ± 0.07 nm DSH.

B3: NGO1745 promoter probe (dsDNA)
DNA 1: TACAGATGAAGACAATGAGCGTGCTGTTAAAGAGTTATTTAAGTCATTT
DNA 2: AAATGACTTAAATAACTCTTTAACAGCACGCTCATTGTCTTCATCTGTA
modifications: 5' amino-C6 on strand 1
Regarding B3, in series [2], the binding result is on record as “no binding”.

B4: NGO1845 promoter probe (dsDNA)
DNA 1: CGGCAAACAAGAAAATCATCTTTTTTCTTGTCGTTATGCTTGACTGTCT
DNA 2: AGACAGTCAAGCATAACGACAAGAAAAAAGATGATTTTCTTGTTTGCCG
modifications: 5' amino-C6 on strand 1
With B4, in series [1], the binding signal came to 1.7 ± 0.3 nm DSH.

B5: NGO1189 promoter probe (dsDNA)
DNA 1: ACTGCCGGTTTGAAAAAAGAATCCATATCGGTGTTTCCGCGCAGGAGGC
DNA 2: GCCTCCTGCGCGGAAACACCGATATGGATTCTTTTTTCAAACCGGCAGT
modifications: 5' amino-C6 on strand 1
Turning to B5, the binding signal in series [3] is 2 ± 0.03 nm DSH.

B6: NGO0899 promoter probe (dsDNA)
DNA 1: TTTTATGCCGAAAATTGATTTTTTTTAAATTTTTTGTTTCTAAAATTTT
DNA 2: AAAATTTTAGAAACAAAAAATTTAAAAAAAATCAATTTTCGGCATAAAA
modifications: 5' amino-C6 on strand 1
On to B6, for which, in series [3], the binding signal was 2.2 ± 0.1 nm DSH.

B7: NGO1683 promoter probe (NGO1684 in Table 1) (dsDNA)
DNA 1: GCGGCGATTGTAATATAAGCGGCGGTATTTGTGTAGTTTTCTTCAGACG
DNA 2: CGTCTGAAGAAAACTACACAAATACCGCCGCTTATATTACAATCGCCGC
modifications: 5' amino-C6 on strand 1
For the molecule B7, the binding result in series [2] was “no binding”.

B8: NGO1419 promoter probe (dsDNA)
DNA 1: TGACGAAAAAACAAAGAAGTATACTTCTTTTTAGTTATGGTTGATTCCA
DNA 2: TGGAATCAACCATAACTAAAAAGAAGTATACTTCTTTGTTTTTTCGTCA
modifications: 5' amino-C6 on strand 1
As for B8, the binding signal in series [4] (label: surface-immobilized) is 1.9 ± 0.4 nm DSH.

B9: NGO0641 promoter probe (dsDNA)
DNA 1: AAAGACAGCAAAGAATTGATTTTATTATAATTTATTTGTAAAGCCATTT
DNA 2: AAATGGCTTTACAAATAAATTATAATAAAATCAATTCTTTGCTGTCTTT
modifications: 5' amino-C6 on strand 1
B9: in series [4] (label: surface-immobilized), the binding signal is 2 ± 0.1 nm DSH.

B10: NGO0101 promoter probe (dsDNA)
DNA 1: CATATTTGAATATAAAAAAGAGCATTGTTGCGTTATCCAATGCTGTAAT
DNA 2: ATTACAGCATTGGATAACGCAACAATGCTCTTTTTTATATTCAAATATG
modifications: 5' amino-C6 on strand 1 (IRIS)
Consider B10, for which the binding signal in series [4] (label: surface-immobilized (IRIS), 32P (EMSA)) was 1.9 ± 0.4 nm DSH. Besides, the Kd in series [5] amounted to 406 ± 145 nM.

B11: NGO0073 promoter probe (dsDNA)
DNA 1: CTGTATAAATGATAATGGTTCTATTTTAATAAAGCACAACGCGGCTTGT
DNA 2: ACAAGCCGCGTTGTGCTTTATTAAAATAGAACCATTATCATTTATACAG
modifications: 5' amino-C6 on strand 1 (IRIS)
As to B11, in series [5], the Kd worked out at 39.8 ± 6.3 nM.

B12: NGO0304 promoter probe (dsDNA)
DNA 1: GAACGAAAATTGATAAAACAAAAGTTAATTAATTGATTGAGAACATAAC
DNA 2: GTTATGTTCTCAATCAATTAATTAACTTTTGTTTTATCAATTTTCGTTC
modifications: 5' amino-C6 on strand 1
Consider B12, for which, in series [3], the binding signal was 2 ± 0.1 nm DSH.

B13: NGO0155 promoter probe (dsDNA)
DNA 1: GATATTTTGTGCTAAAAATTTATATAATATTTAAATTAATATCAAGTTA
DNA 2: TAACTTGATATTAATTTAAATATTATATAAATTTTTAGCACAAAATATC
modifications: 5' amino-C6 on strand 1
For the molecule B13, the binding signal in series [3] is 1.9 ± 0.1 nm DSH.

B14: fur promoter Fur box probe (dsDNA)
DNA 1: CTGCTTGAATATTTTATAAAAGCGAACGATAATCATACGCTTAAGCGGT
DNA 2: ACCGCTTAAGCGTATGATTATCGTTCGCTTTTATAAAATATTCAAGCAG
modifications: 5' amino-C6 on strand 1 (IRIS)
On to B14, for which the Kd in series [5] amounted to 31.8 ± 7.9 nM.
